Laboratory results reported in patent US11219221B2 (FarmHannong Co., Ltd., priority 2017, dated 2022).

Tested on: CyPPO17
Assay: Herbicide tolerance test of CyPPO17 wild type and variants in PPO-deficient E. coli BT3(ΔPPO)
Format: cell-based, Thermosynechococcus sp. NK55a
Conditions: BT3(ΔPPO) transformants, two or more amino acid mutations, dark; for Herbicide tolerance, tiafenacil: 37° C., 16 to 20 hours, relative to wild type at highest concentration (50, 200 μM); for Herbicide tolerance, flumioxazin: relative to wild type at highest concentration (100, 200 μM); for Herbicide tolerance, sulfentrazone: relative to wild type at highest concentration (200, 400 μM)
Description: The mutated CyPPO gene obtained from the Example 2 was transformed to BT3 (ΔPPO) strain which is deficient of PPO activity and cultured in LB media with PPO-inhibiting herbicide, thereby examining whether growth of transformed BT3 was not inhibited.
BT3 competent cells were transformed with the pET303-CyPPO16 and pET303-CyPPO17 plasmids and those with a mutation(s) constructed in Example 2 respectively, and were cultured in LB agar media containing carbenicillin (Gold Biotechnology, Co., Ltd.).
Single colony of E. coli transformed with each CyPPO gene was cultured in 3 ml of LB broth containing carbenicillin overnight, and then was subcultured until absorbance (0D600) reached 0.5 to 1. Then, it was diluted with LB broth to OD600=0.5. Again, the diluted solution was serially diluted 4 times by a factor of one tenth.
The LB agar media (LB 25 g/l, Bacto agar 15 g/l) containing carbenicillin (100 μg/ml) and 0 to 4,000 μM of various herbicides dissolved in DMSO was prepared. Next, 10 μl of each diluted solution was dropped on the plate and cultured at 37° C. under light (Tables 7 and 9, FIGS. 2 to 6, and 18 to 22) or dark (Tables 8 and 10, FIGS. 7 to 17, and 23 to 33) for 16 to 20 hours. Then, extent of tolerance was evaluated.
The extent of herbicide tolerance of the mutated genes was evaluated by comparing that of mutated genes with that of wild type. The relative tolerance was represented with “+” as a factor of 10 times. Evaluation result was listed in Tables 7 to10 and FIGS. 2 to 33:
In Tables 7 to 10, tolerance level was presented as of tolerance of wild type and of variants equivalent to that of wild type, and was done as ‘+’ per each 10 fold resistance until ‘+++++’ as maximal resistance. (Tolerance level was evaluated by relative growth level of variants to that of wild type in the media containing highest concentration of herbicide; ‘+’=1-9 fold higher tolerance, ‘++’=10-99 fold higher tolerance, ‘+++’=100-999 fold higher tolerance, ‘++++’=1,000-9,999 fold higher tolerance, ‘+++++’=more than 10,000 fold higher tolerance)
The concentrations of herbicides were written above the photographs of tolerance test. A dilution series (0D600=0.5, 0.05, 0.005, 0.0005, 0.00005) was made and spotted on LB agar plates supplemented with herbicides.

B1: V304M + F359I: CyPPO17 variant (protein)
chain: MEVDVAIVGGGLSGLSVAWRLQQSAPQYSGVLLEASDRLGGNITTQGAEGFVWELGPNSFAPTPALLQLIAEVGLHSELIRGDRHLPRYIYWRGELYPLEPTRPLALATSNLLSPWGKVRAALGALGFVPPYLGSGDESVNSFFRRHLGQEVAERLVAPFVSGVYAGDPQQLSAAAAFRRIAQLEKLGGGLIAGALRLRRQQPPKPRPPAEVQMRPGELGSFKEGLAALPRAIAQQLKAPVHLQTPVEAITPEPNGGYLLRSGEQTWQARSVVLATPAYQTAALVAPFQPAIARVLAAIPYPTMACVVLAYPAGLGRSVRPGFGVLIPRGQGIRTLGTIWSSCLFPQRTPAGWQVFTSIIGGATDPDLASLREEAIVQQVQQDLTRLLDLPAAKARLLGMKVWRRAIPQYLVGYPQQWQQVTHALSQTPGLFLCSNYAEGVALGDRVEHGNRTAAAVAAYLSGGQS
modifications: Synthetic (Protoporphyrinogen IX oxidase (CyPPO17) of Thermosynechococcus sp. NK55a)
notes: CyPPO17 variant
- Herbicide tolerance, tiafenacil: +++ (‘+++’=100-999 fold higher tolerance)
- Herbicide tolerance, flumioxazin: +++ (‘+++’=100-999 fold higher tolerance)
- Herbicide tolerance, sulfentrazone: ++ (‘++’=10-99 fold higher tolerance)

B2: V304M + L326T + F359M: CyPPO17 variant (protein)
chain: MEVDVAIVGGGLSGLSVAWRLQQSAPQYSGVLLEASDRLGGNITTQGAEGFVWELGPNSFAPTPALLQLIAEVGLHSELIRGDRHLPRYIYWRGELYPLEPTRPLALATSNLLSPWGKVRAALGALGFVPPYLGSGDESVNSFFRRHLGQEVAERLVAPFVSGVYAGDPQQLSAAAAFRRIAQLEKLGGGLIAGALRLRRQQPPKPRPPAEVQMRPGELGSFKEGLAALPRAIAQQLKAPVHLQTPVEAITPEPNGGYLLRSGEQTWQARSVVLATPAYQTAALVAPFQPAIARVLAAIPYPTMACVVLAYPAGLGRSVRPGFGVTIPRGQGIRTLGTIWSSCLFPQRTPAGWQVFTSMIGGATDPDLASLREEAIVQQVQQDLTRLLDLPAAKARLLGMKVWRRAIPQYLVGYPQQWQQVTHALSQTPGLFLCSNYAEGVALGDRVEHGNRTAAAVAAYLSGGQS
modifications: Synthetic (Protoporphyrinogen IX oxidase (CyPPO17) of Thermosynechococcus sp. NK55a)
notes: CyPPO17 variant
- Herbicide tolerance, tiafenacil: ++++ (‘++++’=1,000-9,999 fold higher tolerance)
- Herbicide tolerance, flumioxazin: ++++ (‘++++’=1,000-9,999 fold higher tolerance)
- Herbicide tolerance, sulfentrazone: +++ (‘+++’=100-999 fold higher tolerance)

B3: V164C + A166L + L326T + F359M: CyPPO17 variant (protein)
chain: MEVDVAIVGGGLSGLSVAWRLQQSAPQYSGVLLEASDRLGGNITTQGAEGFVWELGPNSFAPTPALLQLIAEVGLHSELIRGDRHLPRYIYWRGELYPLEPTRPLALATSNLLSPWGKVRAALGALGFVPPYLGSGDESVNSFFRRHLGQEVAERLVAPFVSGCYLGDPQQLSAAAAFRRIAQLEKLGGGLIAGALRLRRQQPPKPRPPAEVQMRPGELGSFKEGLAALPRAIAQQLKAPVHLQTPVEAITPEPNGGYLLRSGEQTWQARSVVLATPAYQTAALVAPFQPAIARVLAAIPYPTVACVVLAYPAGLGRSVRPGFGVTIPRGQGIRTLGTIWSSCLFPQRTPAGWQVFTSMIGGATDPDLASLREEAIVQQVQQDLTRLLDLPAAKARLLGMKVWRRAIPQYLVGYPQQWQQVTHALSQTPGLFLCSNYAEGVALGDRVEHGNRTAAAVAAYLSGGQS
modifications: Synthetic (Protoporphyrinogen IX oxidase (CyPPO17) of Thermosynechococcus sp. NK55a)
notes: CyPPO17 variant
- Herbicide tolerance, tiafenacil: +++++ (‘+++++’=more than 10,000 fold higher tolerance)
- Herbicide tolerance, flumioxazin: +++++ (‘+++++’=more than 10,000 fold higher tolerance)
- Herbicide tolerance, sulfentrazone: ++++ (‘++++’=1,000-9,999 fold higher tolerance)

B4: R88A + V164C + A166L + L326T + F359M: CyPPO17 variant (protein)
chain: MEVDVAIVGGGLSGLSVAWRLQQSAPQYSGVLLEASDRLGGNITTQGAEGFVWELGPNSFAPTPALLQLIAEVGLHSELIRGDRHLPAYIYWRGELYPLEPTRPLALATSNLLSPWGKVRAALGALGFVPPYLGSGDESVNSFFRRHLGQEVAERLVAPFVSGCYLGDPQQLSAAAAFRRIAQLEKLGGGLIAGALRLRRQQPPKPRPPAEVQMRPGELGSFKEGLAALPRAIAQQLKAPVHLQTPVEAITPEPNGGYLLRSGEQTWQARSVVLATPAYQTAALVAPFQPAIARVLAAIPYPTVACVVLAYPAGLGRSVRPGFGVTIPRGQGIRTLGTIWSSCLFPQRTPAGWQVFTSMIGGATDPDLASLREEAIVQQVQQDLTRLLDLPAAKARLLGMKVWRRAIPQYLVGYPQQWQQVTHALSQTPGLFLCSNYAEGVALGDRVEHGNRTAAAVAAYLSGGQS
modifications: Synthetic (Protoporphyrinogen IX oxidase (CyPPO17) of Thermosynechococcus sp. NK55a)
notes: CyPPO17 variant
- Herbicide tolerance, tiafenacil: +++++ (‘+++++’=more than 10,000 fold higher tolerance)
- Herbicide tolerance, flumioxazin: +++++ (‘+++++’=more than 10,000 fold higher tolerance)
- Herbicide tolerance, sulfentrazone: ++++ (‘++++’=1,000-9,999 fold higher tolerance)

B5: V164C + A166L + V304M + L326T + F359M: CyPPO17 variant (protein)
chain: MEVDVAIVGGGLSGLSVAWRLQQSAPQYSGVLLEASDRLGGNITTQGAEGFVWELGPNSFAPTPALLQLIAEVGLHSELIRGDRHLPRYIYWRGELYPLEPTRPLALATSNLLSPWGKVRAALGALGFVPPYLGSGDESVNSFFRRHLGQEVAERLVAPFVSGCYLGDPQQLSAAAAFRRIAQLEKLGGGLIAGALRLRRQQPPKPRPPAEVQMRPGELGSFKEGLAALPRAIAQQLKAPVHLQTPVEAITPEPNGGYLLRSGEQTWQARSVVLATPAYQTAALVAPFQPAIARVLAAIPYPTMACVVLAYPAGLGRSVRPGFGVTIPRGQGIRTLGTIWSSCLFPQRTPAGWQVFTSMIGGATDPDLASLREEAIVQQVQQDLTRLLDLPAAKARLLGMKVWRRAIPQYLVGYPQQWQQVTHALSQTPGLFLCSNYAEGVALGDRVEHGNRTAAAVAAYLSGGQS
modifications: Synthetic (Protoporphyrinogen IX oxidase (CyPPO17) of Thermosynechococcus sp. NK55a)
notes: CyPPO17 variant
- Herbicide tolerance, tiafenacil: +++++ (‘+++++’=more than 10,000 fold higher tolerance)
- Herbicide tolerance, flumioxazin: +++++ (‘+++++’=more than 10,000 fold higher tolerance)
- Herbicide tolerance, sulfentrazone: ++++ (‘++++’=1,000-9,999 fold higher tolerance)

B6: R88A + V164C + A166C + V304M + L326T + F359M: CyPPO17 variant (protein)
chain: MEVDVAIVGGGLSGLSVAWRLQQSAPQYSGVLLEASDRLGGNITTQGAEGFVWELGPNSFAPTPALLQLIAEVGLHSELIRGDRHLPAYIYWRGELYPLEPTRPLALATSNLLSPWGKVRAALGALGFVPPYLGSGDESVNSFFRRHLGQEVAERLVAPFVSGCYCGDPQQLSAAAAFRRIAQLEKLGGGLIAGALRLRRQQPPKPRPPAEVQMRPGELGSFKEGLAALPRAIAQQLKAPVHLQTPVEAITPEPNGGYLLRSGEQTWQARSVVLATPAYQTAALVAPFQPAIARVLAAIPYPTMACVVLAYPAGLGRSVRPGFGVTIPRGQGIRTLGTIWSSCLFPQRTPAGWQVFTSMIGGATDPDLASLREEAIVQQVQQDLTRLLDLPAAKARLLGMKVWRRAIPQYLVGYPQQWQQVTHALSQTPGLFLCSNYAEGVALGDRVEHGNRTAAAVAAYLSGGQS
modifications: Synthetic (Protoporphyrinogen IX oxidase (CyPPO17) of Thermosynechococcus sp. NK55a)
notes: CyPPO17 variant
- Herbicide tolerance, tiafenacil: +++++ (‘+++++’=more than 10,000 fold higher tolerance)
- Herbicide tolerance, flumioxazin: +++++ (‘+++++’=more than 10,000 fold higher tolerance)
- Herbicide tolerance, sulfentrazone: ++++ (‘++++’=1,000-9,999 fold higher tolerance)
